In US20190338011A1:

What was measured:
[1] = molecular target: human MIC-A (expressed on P815 mastocytoma cells) (human) (UniProt Q29983); test: cell-based or functional assay
[2] = molecular target: human NKG2D ligand on human tumor cell lines (Jurkat, RPMI8866, K562, Daubi, U937, ECC-1); test: cell-based or functional assay

Chain of UniProt Q29983 (Q29983 24-383): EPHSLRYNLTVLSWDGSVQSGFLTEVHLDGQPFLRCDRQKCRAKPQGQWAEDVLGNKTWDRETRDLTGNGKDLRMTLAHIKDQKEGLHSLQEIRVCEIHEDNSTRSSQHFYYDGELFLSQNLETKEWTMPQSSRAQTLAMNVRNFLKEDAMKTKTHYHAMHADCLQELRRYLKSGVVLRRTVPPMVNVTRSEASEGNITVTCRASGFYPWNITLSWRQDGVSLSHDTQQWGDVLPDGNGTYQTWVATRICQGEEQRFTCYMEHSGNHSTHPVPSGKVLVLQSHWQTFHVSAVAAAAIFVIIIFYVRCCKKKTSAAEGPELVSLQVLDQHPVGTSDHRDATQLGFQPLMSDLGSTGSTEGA

For “human chimeric NKG2D (human CD3ζ attached to the N-terminus of human NKG2D) (receptor)”, the Specific Lysis (%) of P815/MIC-A, Effector:Target Ratio 1 [1] was 5.4%, the Specific Lysis (%) of P815/MIC-A, Effector:Target Ratio 5 [1] was 17.3% and the Specific Lysis (%) of P815/MIC-A, Effector:Target Ratio 25 [1] was 35.4%. For the same substance, the Specific Lysis (%) of K562, Effector:Target Ratio 1, with control antibody [2] was 3.1%, the Specific Lysis (%) of K562, Effector:Target Ratio 5, with control antibody [2] was 17.6% and the Specific Lysis (%) of K562, Effector:Target Ratio 25, with control antibody [2] was 53.8%. For the same substance, the Specific Lysis (%) of RPMI8866, Effector:Target Ratio 1, with control antibody [2] was 9.3%, the Specific Lysis (%) of RPMI8866, Effector:Target Ratio 5, with control antibody [2] was 27.4% and the Specific Lysis (%) of RPMI8866, Effector:Target Ratio 25, with control antibody [2] was 41.6%.
